Assay results: patent US20180016342A1 (published 2018)
Blank lines part the entries; values can stand above or below the molecule they belong to.

What was measured:
[1] = molecular target: membrane-bound IL6R on human cells (U266, XG-1, TF-1) (human) (UniProt P08887); assay: cell-based or functional assay
[2] = molecular target: T1, soluble IL6-R in cynomolgus plasma (cynomolgus monkey, UniProt A0A2K5WN54 60-386); assay: ELISA inhibition of IL-6 binding to plasma sIL6R; cyno plasma, 50 ng/mL IL-6
T1 chain: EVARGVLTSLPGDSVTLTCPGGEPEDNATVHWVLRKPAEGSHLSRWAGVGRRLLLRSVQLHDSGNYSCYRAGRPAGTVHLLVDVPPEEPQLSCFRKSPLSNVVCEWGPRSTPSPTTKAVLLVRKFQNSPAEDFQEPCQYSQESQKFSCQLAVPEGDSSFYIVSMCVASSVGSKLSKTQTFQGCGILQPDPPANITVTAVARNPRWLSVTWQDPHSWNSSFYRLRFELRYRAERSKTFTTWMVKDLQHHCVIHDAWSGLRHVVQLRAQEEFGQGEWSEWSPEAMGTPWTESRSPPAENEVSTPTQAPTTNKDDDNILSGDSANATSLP

[3] = molecular target: T2, human soluble IL6-R (human, UniProt P08887 20-358); assay: Alphascreen inhibition of IL6/IL6-R interaction
T2 chain: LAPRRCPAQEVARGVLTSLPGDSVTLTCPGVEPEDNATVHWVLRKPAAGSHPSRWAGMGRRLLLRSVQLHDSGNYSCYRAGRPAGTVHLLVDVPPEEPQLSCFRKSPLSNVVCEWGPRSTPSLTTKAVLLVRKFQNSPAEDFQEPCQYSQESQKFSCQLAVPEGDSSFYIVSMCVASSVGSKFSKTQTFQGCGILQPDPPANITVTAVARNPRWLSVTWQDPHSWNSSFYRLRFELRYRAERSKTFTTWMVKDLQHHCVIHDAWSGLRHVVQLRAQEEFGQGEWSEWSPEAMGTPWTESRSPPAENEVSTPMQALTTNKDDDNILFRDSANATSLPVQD

[4] = molecular target: T2, human soluble IL6-R; assay: Alphascreen inhibition of IL6/IL6-R interaction
[5] = molecular target: T2, human soluble IL6-R; assay: Alphascreen inhibition of IL6/IL6-R interaction; printed LOGEC50 -9.833
[6] = molecular target: T2, human soluble IL6-R; assay: Alphascreen inhibition of IL6/IL6-R interaction
[7] = molecular target: T2, human soluble IL6-R; assay: Alphascreen inhibition of IL6/IL6-R interaction

- IC50 (+1% HSA), TF-1 proliferation assay, 200 pg/ml IL-6 [1]: 0.088
- IC50 (nM), XG-1 cell based assay [1]: 0.064 nM
- IC50 (w/o HSA), TF-1 proliferation assay, 200 pg/ml IL-6 [1]: 0.042
Molecule: MAb BR-6 (antibody)

- IC50 (nM), XG-1 cell based assay [1]: 0.272 nM
Molecule: MAb BN-12 (antibody)

- EC50 [2]: 5.88 nM
- EC50 [3]: 0.105 nM
- EC50 [4]: 0.187 nM
B1: IL6R03 (VHH)
VHH: EVQLVESGGGLVQAGGSLRLSCAASGSIFKVNAMGWYRQAPGKQRELVAGIISGGSTNYADSVKGRLTISRDNAKNTVYLQMNSLKPEDTAVYYCSFVTTNSDYDLGRDYWGQGTQVTVSS

- EC50 [4]: 0.108 nM
B2: IL6R64 (VHH)
VHH: EVQLVESGGGLVQPGGSLRLSCAASGSIFKVNAMGWYRQAPGKGRELVAGIISGGSTNYADSVKGRLTISRDNAKNTVYLQMNSLRPEDTAVYYCAFVTTNSDYDLGRDYWGQGTLVTVSS

- EC50 [4]: 0.336 nM
B3: IL6R61 (VHH)
VHH: EVQLVESGGGLVQPGGSLRLSCAASGSIFKVNAMGWYRQAPGKGRELVAGIISGGSTNYADSVKGRLTISRDNAKNTVYLQMNSLRPEDTAVYYCSFVTTNSDYDLGRDYWGQGTLVTVSS

- EC50 [4]: 0.28 nM
B4: IL6R62 (VHH)
VHH: EVQLVESGGGLVQPGGSLRLSCAASGSIFKVNAMGWYRQAPGKGRELVAGIISGGSTNYADSVKGRFTISRDNAKNTVYLQMNSLRPEDTAVYYCSFVTTNSDYDLGRDYWGQGTLVTVSS

- EC50 [4]: 0.65 nM
B5: IL6R63 (VHH)
VHH: EVQLVESGGGLVQPGGSLRLSCAASGSIFKVNAMGWYRQAPGKGRELVAGIISGGSTNYADSVKGRLTISRDNAKNTLYLQMNSLRPEDTAVYYCSFVTTNSDYDLGRDYWGQGTLVTVSS

- EC50 [2]: 4.91 nM
- EC50 [5]: 0.105 nM
B6: IL6R65 (VHH)
VHH: EVQLVESGGGLVQPGGSLRLSCAASGSIFKVNAMGWYRQAPGKGRELVAGIISGGSTNYADSVKGRFTISRDNAKNTLYLQMNSLRPEDTAVYYCAFVTTNSDYDLGRDYWGQGTLVTVSS

- EC50 [6]: 0.465 nM
B7: IL6R84 (VHH)
VHH: EVQLVESGGGLVQPGGSLRLSCAASGFTFDDYGMSWVRQAPGKGLEWVSAISWNGNNTYYTESMKGRFTISRDNAKNTLYLQMNSLRPEDTAVYYCVKGSTAIVGVPPTYPDEYDYWGQGTLVTVSS

- EC50 [2]: 11.7 nM
- EC50 [3]: 0.0505 nM
- EC50 [6]: 0.0644 nM
B8: IL6R13 (VHH)
VHH: EVQLVESGGGLVQPGGSLRLSCAASGFTFDDYGMSWVRQAPGRATEWVSAISWNGNNTYYTESMKGRFTISRDNAKNTVYLQMNSLKPEDTAVYYCVKGSTAIVGVPPTYPDEYDYWGQGTQVTVSS

- EC50 [2]: 23.3 nM
- EC50 [3]: 0.0727 nM
B9: IL6R88 (VHH)
VHH: EVQLVESGGGLVQPGGSLRLSCAASGFTFDDYGMSWVRQAPGKGTEWVSAISWNGNNTYYTESMKGRFTISRDNAKNTLYLQMNSLRPEDTAVYYCVKGSTAIVGVPPTYPDEYDYWGQGTLVTVSS

- EC50 [6]: 0.476 nM
B10: IL6R82 (VHH)
VHH: EVQLVESGGGLVQPGGSLRLSCAASGFTFDDYGMSWVRQAPGKGLEWVSAISWNGNNTYYTESMKGRFTISRDNAKNTVYLQMNSLRPEDTAVYYCVKGSTAIVGVPPTYPDEYDYWGQGTLVTVSS

- EC50 [6]: 0.0747 nM
B11: IL6R81 (VHH)
VHH: EVQLVESGGGLVQPGGSLRLSCAASGFTFDDYGMSWVRQAPGRATEWVSAISWNGNNTYYTESMKGRFTISRDNAKNTVYLQMNSLRPEDTAVYYCVKGSTAIVGVPPTYPDEYDYWGQGTLVTVSS

- EC50 [6]: 0.0779 nM
B12: IL6R83 (VHH)
VHH: EVQLVESGGGLVQPGGSLRLSCAASGFTFDDYGMSWVRQAPGRATEWVSAISWNGNNTYYTESMKGRFTISRDNAKNTLYLQMNSLRPEDTAVYYCVKGSTAIVGVPPTYPDEYDYWGQGTLVTVSS

- EC50 [2]: 36.9 nM
- EC50 [3]: 0.0568 nM
- EC50 [7]: 0.18 nM
B13: IL6R04 (VHH)
VHH: EVQLVESGGGLVQAGGSLRLSCAASGFTFDDYDIGWFRQAPGKEREGVSGISSSDGNTYYADSVKGRFTISSDNAKNTVYLQMNSLKPEDTAVYYCAAEPPDSSWYLDGSPEFFKYWGQGTQVTVSS

- EC50 [3]: 0.0432 nM
B14: IL6R75 (VHH)
VHH: EVQLVESGGGLVQPGGSLRLSCAASGFTFSDYDIGWFRQAPGKGREGVSGISSSDGNTYYADSVKGRFTISRDNAKNTLYLQMNSLRPEDTAVYYCAAEPPDSSWYLDGSPEFFKYWGQGTLVTVSS

- EC50 [7]: 0.153 nM
B15: IL6R71 (VHH)
VHH: EVQLVESGGGLVQPGGSLRLSCAASGFTFDDYDIGWFRQAPGKGREGVSGISSSDGNTYYADSVKGRFTISSDNAKNTVYLQMNSLRPEDTAVYYCAAEPPDSSWYLDGSPEFFKYWGQGTLVTVSS

- EC50 [7]: 0.16 nM
B16: IL6R72 (VHH)
VHH: EVQLVESGGGLVQPGGSLRLSCAASGFTFSDYDIGWFRQAPGKGREGVSGISSSDGNTYYADSVKGRFTISSDNAKNTVYLQMNSLRPEDTAVYYCAAEPPDSSWYLDGSPEFFKYWGQGTLVTVSS

- EC50 [7]: 0.0916 nM
B17: IL6R73 (VHH)
VHH: EVQLVESGGGLVQPGGSLRLSCAASGFTFDDYDIGWFRQAPGKGREGVSGISSSDGNTYYADSVKGRFTISRDNAKNTVYLQMNSLRPEDTAVYYCAAEPPDSSWYLDGSPEFFKYWGQGTLVTVSS

- EC50 [7]: 0.133 nM
B18: IL6R74 (VHH)
VHH: EVQLVESGGGLVQPGGSLRLSCAASGFTFDDYDIGWFRQAPGKGREGVSGISSSDGNTYYADSVKGRFTISSDNAKNTLYLQMNSLRPEDTAVYYCAAEPPDSSWYLDGSPEFFKYWGQGTLVTVSS
